The values that follow come from PMC8064603.

In the test the target is bovine RNase B, biotinylated (bovine) (UniProt P61823). In words: BLI; biotinylated RNase B captured on streptavidin biosensors; purified fimbriae at 50 and 100 nM as analyte; 0.2% BSA in HBS; global fit: conformational change model for FimH^wt, 1:1 Langmuir model for FimH^FocH; one representative experiment. Background: Biolayer interferometry detects binding as a change in optical thickness at a sensor tip.
Sequence of UniProt P61823 (P61823 27-150): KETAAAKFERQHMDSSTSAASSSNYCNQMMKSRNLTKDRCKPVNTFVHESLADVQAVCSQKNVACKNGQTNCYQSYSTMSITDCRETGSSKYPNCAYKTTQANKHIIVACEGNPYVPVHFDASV

The term Kd denotes the free concentration of one partner at which half of the binding sites on the other are occupied at equilibrium, for simple one-to-one binding. Read a low Kd as a tighter complex. For “purified type 1 fimbriae carrying wild-type FimH adhesin (FimH^wt) of E. coli K12 (from UniProt P08191 22-300) (complex)”, the Kd worked out at 149 nM; the kact (rate of transition from LAS to HAS, conformational change model) came to 0.0072 s⁻¹; the kinact (rate of transition from HAS to LAS, conformational change model) was 0.0128 s⁻¹; the koff (LAS dissociation rate, conformational change model) was 0.256 s⁻¹. For the same substance, the kon (LAS association rate, conformational change model) was 1.1e+06 M⁻¹ s⁻¹.
